Data reported in patent US20250382344A1, “Soluble GLP1/GIP/NPY2 Receptor Triple Agonists” (Boehringer Ingelheim International GmH, priority 2024, published 2025).
Numbering of substitutions follows the chain as printed. *1 amine or outer side, *2 acyl side, *3 side chain or, on linkers, in order; H or OH if unused. Where no end group is shown, it is not given here. Side-chain parts run from the residue outwards. [ ]: non-standard residue; d: D form. The star is where a group is joined. C20 diacid = O=C(O)CCCCCCCCCCCCCCCCCCC(=O)*; C18 diacid = O=C(O)CCCCCCCCCCCCCCCCC(=O)*; γGlu = O=C(O)[C@H](CCC(=O)[*:2])N[*:1]; εLys = N[C@@H](CCCCN[*:1])C(=O)[*:2]; dtOrn = not defined here; AEEA = NCCOCCOCC(=O)O; Aib = CC(C)(N)C(=O)O

T1: human neuropeptide Y2 receptor (human, UniProt P49146 1-381)
T1 sequence (looked up): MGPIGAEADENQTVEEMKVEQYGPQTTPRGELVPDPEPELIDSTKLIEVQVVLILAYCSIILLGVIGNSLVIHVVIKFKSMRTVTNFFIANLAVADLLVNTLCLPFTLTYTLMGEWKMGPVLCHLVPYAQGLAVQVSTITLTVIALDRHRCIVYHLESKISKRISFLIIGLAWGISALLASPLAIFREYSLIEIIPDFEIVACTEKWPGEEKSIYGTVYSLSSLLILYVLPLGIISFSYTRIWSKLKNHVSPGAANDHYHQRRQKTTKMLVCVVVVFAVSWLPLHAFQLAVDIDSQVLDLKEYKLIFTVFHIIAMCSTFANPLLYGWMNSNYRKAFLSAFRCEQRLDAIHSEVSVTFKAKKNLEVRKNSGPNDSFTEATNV

T2: human GIP receptor (human, UniProt P48546 22-466)
T2 sequence (looked up): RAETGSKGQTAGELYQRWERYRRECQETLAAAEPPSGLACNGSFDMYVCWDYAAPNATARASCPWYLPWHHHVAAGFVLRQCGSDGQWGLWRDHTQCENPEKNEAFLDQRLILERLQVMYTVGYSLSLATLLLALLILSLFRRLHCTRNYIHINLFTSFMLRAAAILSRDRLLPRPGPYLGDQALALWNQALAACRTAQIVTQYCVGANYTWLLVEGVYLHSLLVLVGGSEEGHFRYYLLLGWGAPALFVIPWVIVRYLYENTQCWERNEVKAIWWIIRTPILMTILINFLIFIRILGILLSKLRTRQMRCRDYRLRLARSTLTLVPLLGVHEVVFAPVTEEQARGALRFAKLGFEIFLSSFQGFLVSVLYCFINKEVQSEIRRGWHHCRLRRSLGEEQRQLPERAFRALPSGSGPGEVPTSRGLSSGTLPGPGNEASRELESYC

B1: Compound 88 (peptide)
peptide: YXEGTFTSDYSIXLEKQAQXAFIRHLINKXTRQRY
modifications: Aib at 2, 13, 20, 30; Lys29 epsilon-amino: C18DA-gGlu-gGlu-gGlu-gGlu-gGlu-gGlu-eLys; C-terminal amide
B2: Compound 91 (peptide)
peptide: B1 peptide with A18R, I23V
modifications: Aib at 2, 13, 20, 30; Lys29 epsilon-amino: C18DA-gGlu-gGlu-gGlu-gGlu-gGlu-gGlu-eLys; C-terminal amide
B3: Compound 96 (peptide)
peptide: B1 peptide with I23V, R34X
modifications: Aib at 2, 13, 20, 30; dOR at 34; Lys29 epsilon-amino: C18DA-gGlu-gGlu-gGlu-gGlu-gGlu; C-terminal amide
B4: Compound 110 (peptide)
peptide: Y[Aib]EGTFTSDYSI[Aib]LEKQAQ[Aib]AFVRHLINK([AEEA-γGlu-γGlu-γGlu-γGlu-C18 diacid])[Aib]TRQRY-NH2
modifications: N-terminus assumed
SMILES: CC[C@H](C)[C@H](NC(=O)[C@H](CC(C)C)NC(=O)[C@H](Cc1c[nH]cn1)NC(=O)[C@H](CCCNC(=N)N)NC(=O)[C@@H](NC(=O)[C@H](Cc1ccccc1)NC(=O)[C@H](C)NC(=O)C(C)(C)NC(=O)[C@H](CCC(N)=O)NC(=O)[C@H](C)NC(=O)[C@H](CCC(N)=O)NC(=O)[C@H](CCCCN)NC(=O)[C@H](CCC(=O)O)NC(=O)[C@H](CC(C)C)NC(=O)C(C)(C)NC(=O)[C@@H](NC(=O)[C@H](CO)NC(=O)[C@H](Cc1ccc(O)cc1)NC(=O)[C@H](CC(=O)O)NC(=O)[C@H](CO)NC(=O)[C@@H](NC(=O)[C@H](Cc1ccccc1)NC(=O)[C@@H](NC(=O)CNC(=O)[C@H](CCC(=O)O)NC(=O)C(C)(C)NC(=O)[C@@H](N)Cc1ccc(O)cc1)[C@@H](C)O)[C@@H](C)O)[C@@H](C)CC)C(C)C)C(=O)N[C@@H](CC(N)=O)C(=O)N[C@@H](CCCCNC(=O)COCCOCCNC(=O)CC[C@H](NC(=O)CC[C@H](NC(=O)CC[C@H](NC(=O)CC[C@H](NC(=O)CCCCCCCCCCCCCCCCC(=O)O)C(=O)O)C(=O)O)C(=O)O)C(=O)O)C(=O)NC(C)(C)C(=O)N[C@H](C(=O)N[C@@H](CCCNC(=N)N)C(=O)N[C@@H](CCC(N)=O)C(=O)N[C@@H](CCCNC(=N)N)C(=O)N[C@@H](Cc1ccc(O)cc1)C(N)=O)[C@@H](C)O
B5: Compound 112 (peptide)
peptide: B1 peptide with I12E, I23V
modifications: Aib at 2, 13, 20, 30; Lys29 epsilon-amino: C18DA-gGlu-gGlu-gGlu-gGlu-gGlu-gGlu-eLys; C-terminal amide
B6: Compound 146 (peptide)
peptide: B1 peptide with I23V, R34X
modifications: Aib at 2, 13, 20, 30; bhArg at 34; Lys29 epsilon-amino: C18DA-gGlu-gGlu-gGlu-gGlu-gGlu-gGlu-eLys; C-terminal amide
B7: Compound 149 (peptide)
peptide: B1 peptide with A21E, I23V
modifications: Aib at 2, 13, 20, 30; Lys29 epsilon-amino: C20DA-gGlu-gGlu-gGlu-gGlu-gGlu-gGlu-eLys; C-terminal amide
B8: Compound 160 (peptide)
peptide: B1 peptide with X13E, I23V
modifications: Aib at 2, 20, 30; Lys29 epsilon-amino: C18DA-gGlu-gGlu-gGlu-gGlu-gGlu-gGlu-eLys; C-terminal amide
B9: Compound 89 (peptide)
peptide: B1 peptide with K16E, I23V
modifications: Aib at 2, 20, 30; aMeL at 13; Lys29 epsilon-amino: C20DA-gGlu-gGlu-gGlu-gGlu-gGlu-gGlu-eLys; C-terminal amide
B10: Compound 90 (peptide)
peptide: B1 peptide with I23V, R34X
modifications: Aib at 2, 13, 20, 30; dOR at 34; Lys29 epsilon-amino: C18DA-gGlu-gGlu-gGlu-gGlu-gGlu-gGlu-eLys; C-terminal amide
B11: Compound 100 (peptide)
peptide: Y[Aib]EGTFTSDYSI[Aib]LEKEAQ[Aib]EFVRHLINK([γGlu-γGlu-γGlu-γGlu-C18 diacid])[Aib]TRQRY-NH2
modifications: N-terminus assumed
SMILES: CC[C@H](C)[C@H](NC(=O)[C@H](CC(C)C)NC(=O)[C@H](Cc1c[nH]cn1)NC(=O)[C@H](CCCNC(=N)N)NC(=O)[C@@H](NC(=O)[C@H](Cc1ccccc1)NC(=O)[C@H](CCC(=O)O)NC(=O)C(C)(C)NC(=O)[C@H](CCC(N)=O)NC(=O)[C@H](C)NC(=O)[C@H](CCC(=O)O)NC(=O)[C@H](CCCCN)NC(=O)[C@H](CCC(=O)O)NC(=O)[C@H](CC(C)C)NC(=O)C(C)(C)NC(=O)[C@@H](NC(=O)[C@H](CO)NC(=O)[C@H](Cc1ccc(O)cc1)NC(=O)[C@H](CC(=O)O)NC(=O)[C@H](CO)NC(=O)[C@@H](NC(=O)[C@H](Cc1ccccc1)NC(=O)[C@@H](NC(=O)CNC(=O)[C@H](CCC(=O)O)NC(=O)C(C)(C)NC(=O)[C@@H](N)Cc1ccc(O)cc1)[C@@H](C)O)[C@@H](C)O)[C@@H](C)CC)C(C)C)C(=O)N[C@@H](CC(N)=O)C(=O)N[C@@H](CCCCNC(=O)CC[C@H](NC(=O)CC[C@H](NC(=O)CC[C@H](NC(=O)CC[C@H](NC(=O)CCCCCCCCCCCCCCCCC(=O)O)C(=O)O)C(=O)O)C(=O)O)C(=O)O)C(=O)NC(C)(C)C(=O)N[C@H](C(=O)N[C@@H](CCCNC(=N)N)C(=O)N[C@@H](CCC(N)=O)C(=O)N[C@@H](CCCNC(=N)N)C(=O)N[C@@H](Cc1ccc(O)cc1)C(N)=O)[C@@H](C)O
B12: Compound 101 (peptide)
peptide: B1 peptide with I23V
modifications: Aib at 2, 13, 20, 30; Lys29 epsilon-amino: C20DA-gGlu-gGlu-gGlu-gGlu-gGlu-gGlu-gGlu; C-terminal amide
B13: Compound 109 (peptide)
peptide: B1 peptide
modifications: Aib at 2, 13, 20, 30; Lys29 epsilon-amino: C20DA-gGlu-gGlu-gGlu-gGlu-gGlu-gGlu-eLys; C-terminal amide
B14: Compound 116 (peptide)
peptide: B1 peptide with I23V
modifications: Aib at 2, 13, 20, 30; NMeY at 35; Lys29 epsilon-amino: C18DA-gGlu-gGlu-gGlu-gGlu-gGlu-gGlu-eLys; C-terminal amide
B15: Compound 124 (peptide)
peptide: B1 peptide with K16R, I23V
modifications: Aib at 2, 13, 20, 30; Lys29 epsilon-amino: C18DA-gGlu-gGlu-gGlu-gGlu-gGlu-gGlu-eLys; C-terminal amide
B16: Compound 128 (peptide)
peptide: B1 peptide with I23V, H25A
modifications: Aib at 2, 13, 20, 30; Lys29 epsilon-amino: C18DA-gGlu-gGlu-gGlu-gGlu-gGlu-gGlu-eLys; C-terminal amide
B17: Compound 164 (peptide)
peptide: B1 peptide with Q17E, I23V
modifications: Aib at 2, 13, 20, 30; Lys29 epsilon-amino: C18DA-gGlu-gGlu-gGlu-gGlu-gGlu-gGlu-eLys; C-terminal amide

Each binder was assayed against T1, human neuropeptide Y2 receptor (assay: cell-based or functional assay).

Binder | EC50, CreLuc reporter, 100% hP | EC50, CreLuc reporter, 0.5% hP
B1 | 30.9 nM | –
B2 | 45.2 nM | 9.7 nM
B3 | 125 nM | 23 nM
Y[Aib]EGTFTSDYSI[Aib]LEKQAQ[Aib]AFVRHLINK([dtOrn-γGlu-γGlu-γGlu-γGlu-γGlu-γGlu-C20 diacid])[Aib]TRQRY-NH2 (reading uncertain) [Compound 97] | 135 nM | 11.7 nM
B4 | 51.4 nM | 14.2 nM
B5 | 27.9 nM | –
B6 | 89.8 nM | 51.5 nM
B7 | 166 nM | –
B8 | 28.5 nM | 15.5 nM

What follows are binders tested against human GLP-1 receptor (human, UniProt P43220 24-463) (assay: cell-based or functional assay).

Binder | EC50, CreLuc reporter, 0.5% hP | EC50, CreLuc reporter, 100% hP
B1 | 0.2 nM | 1.8 nM
B9 | 0.2 nM | 1.7 nM
B10 | 2 nM | –
B2 | – | 13.7 nM
B3 | 0.9 nM | 1.7 nM
Y[Aib]EGTFTSDYSI[Aib]LEKQAQ[Aib]AFVRHLINK([dtOrn-γGlu-γGlu-γGlu-γGlu-γGlu-γGlu-C20 diacid])[Aib]TRQRY-NH2 (reading uncertain) [Compound 97] | 3.8 nM | 16.8 nM
B11 | 0.2 nM | –
B12 | – | 20 nM
B13 | 0.8 nM | –
B4 | 0.7 nM | 2.3 nM
B5 | – | 31.6 nM
B14 | 2 nM | –
B15 | 0.5 nM | –
B16 | 0.7 nM | 4 nM
B6 | 1 nM | –
B7 | – | 3.3 nM
B8 | 7.1 nM | 27 nM
B17 | 0.6 nM | –
Y[Aib]EGTFTSDLSI[Aib]LEKQAQ[Aib]AFVRHLINK([γGlu-γGlu-εLys-γGlu-γGlu-γGlu-γGlu-C20 diacid])[Aib]TRQRY-NH2 [Compound 166] | 8 nM | –

The binders below were run against T2, human GIP receptor (assay: cell-based or functional assay).

Binder | EC50, CreLuc reporter, 0.5% hP | EC50, CreLuc reporter, 100% hP
B1 | 0.1 nM | 1.7 nM
B9 | – | 0.9 nM
B10 | – | 0.6 nM
B2 | 0.8 nM | 14.4 nM
B3 | 0.3 nM | 1.7 nM
Y[Aib]EGTFTSDYSI[Aib]LEKQAQ[Aib]AFVRHLINK([dtOrn-γGlu-γGlu-γGlu-γGlu-γGlu-γGlu-C20 diacid])[Aib]TRQRY-NH2 (reading uncertain) [Compound 97] | – | 12.7 nM
B11 | 0.5 nM | –
B12 | 1 nM | –
B13 | 0.3 nM | –
B4 | – | 3.8 nM
B5 | 0.5 nM | 10.3 nM
B14 | – | 3.4 nM
B15 | 0.1 nM | 4 nM
B16 | 0.2 nM | 5.7 nM
B17 | 0.4 nM | –
Y[Aib]EGTFTSDLSI[Aib]LEKQAQ[Aib]AFVRHLINK([γGlu-γGlu-εLys-γGlu-γGlu-γGlu-γGlu-C20 diacid])[Aib]TRQRY-NH2 [Compound 166] | 0.6 nM | –
